Reference: publication PMC6362308

Biological target: taxol-stabilized microtubules
Assay: co-sedimentation; 0.1 uM recombinant RECQL4 with or without 2 uM taxol-stabilized microtubules, 15 min, 20,000 g for 10 min at RT; supernatant and pellet analysed by Coomassie staining and Western blot against His6-tag (Fig 1B)

Sequence of taxol-stabilized microtubules (P68363 whole entry, chain 1 of 2): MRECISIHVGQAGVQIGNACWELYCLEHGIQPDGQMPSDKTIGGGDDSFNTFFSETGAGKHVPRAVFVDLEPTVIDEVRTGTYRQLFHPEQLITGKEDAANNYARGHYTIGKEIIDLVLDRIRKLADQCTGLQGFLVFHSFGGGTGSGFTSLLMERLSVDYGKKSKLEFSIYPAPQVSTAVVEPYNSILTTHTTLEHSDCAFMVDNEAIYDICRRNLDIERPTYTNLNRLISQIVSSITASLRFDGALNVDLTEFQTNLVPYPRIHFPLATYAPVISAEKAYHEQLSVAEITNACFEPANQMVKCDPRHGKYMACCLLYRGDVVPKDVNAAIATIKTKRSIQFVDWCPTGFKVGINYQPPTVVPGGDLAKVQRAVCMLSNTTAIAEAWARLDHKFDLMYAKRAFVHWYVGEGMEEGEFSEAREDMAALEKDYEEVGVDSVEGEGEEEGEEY
Sequence of taxol-stabilized microtubules (A8K068 whole entry, chain 2 of 2, further chain): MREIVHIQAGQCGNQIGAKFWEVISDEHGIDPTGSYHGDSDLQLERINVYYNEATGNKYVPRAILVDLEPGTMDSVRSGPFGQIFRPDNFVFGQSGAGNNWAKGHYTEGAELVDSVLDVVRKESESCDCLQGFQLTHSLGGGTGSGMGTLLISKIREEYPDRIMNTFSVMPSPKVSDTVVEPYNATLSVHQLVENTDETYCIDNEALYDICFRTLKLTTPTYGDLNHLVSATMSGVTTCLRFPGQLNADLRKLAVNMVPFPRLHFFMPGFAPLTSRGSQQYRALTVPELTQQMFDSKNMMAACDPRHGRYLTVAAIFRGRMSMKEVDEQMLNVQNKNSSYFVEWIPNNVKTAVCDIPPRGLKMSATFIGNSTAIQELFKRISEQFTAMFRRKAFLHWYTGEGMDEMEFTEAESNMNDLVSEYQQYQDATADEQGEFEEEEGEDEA

percent of the protein in the pellet: 100%
Substance: Recombinant Xenopus RECQL4 expressed in insect cells (natural protein)
